The text below walks through data of doi:10.1101/737510 (bioRxiv, 2019).

In this assay the target is DDA1 (human, UniProt Q9BW61 1-102). In words: crystal structure.

B1: DDB1(ΔBPB) (natural protein)
chain: MSYNYVVTAQKPTAVNGCVTGHFTSAEDLNLLIAKNTRLEIYVVTAEGLRPVKEVGMYGKIAVMELFRPKGESKDLLFILTAKYNACILEYKQSGESIDIITRAHGNVQDRIGRPSETGIIGIIDPECRMIGLRLYDGLFKVIPLDRDNKELKAFNIRLEELHVIDVKFLYGCQAPTICFVYQDPQGRHVKTYEVSLREKEFNKGPWKQENVEAEASMVIAVPEPFGGAIIIGQESITYHNGDKYLAIAPPIIKQSTIVCHNRVDPNGSRYLLGDMEGRLFMLLLEKEEQMDGTVTLKDLRVELLGETSIAECLTYLDNGVVFVGSRLGDSQLVKLNVDSNEQGSYVVAMETFTNLGPIVDMCVVDLERQGQGQLVTCSGAFKEGSLRIIRNGIGIHGTIDEIQKLHIRTVPLYESPRKICYQEVSQCFGVLSSRIEVQDTSGGTTALRPSASTQALSSSVSSSKLFSSSTAPHETSFGEEVEVHNLLIIDQHTFEVLHAHQFLQNEYALSLVSCKLGKDPNTYFIVGTAMVYPEEAEPKQGRIVVFQYSDGKLQTVAEKEVKGAVYSMVEFNGKLLASINSTVRLYEWTTEKELRTECNHYNNIMALYLKTKGDFILVGDLMRSVLLLAYKPMEGNFEEIARDFNPNWMSAVEILDDDNFLGAENAFNLFVCQKDSAATTDEERQHLQEVGLFHLGEFVNVFCHGSLVMQNLGETSTPTQGSVLFGTVNGMIGLVTSLSESWYNLLLDMQNRLNKVIKSVGKIEHSFWRSFHTERKTEPATGFIDGDLIESFLDISRPKMQEVVANLQYDDGSGMKREATADDLIKVVEELTRIH
In the case of B1, the binding result is listed as “binds”.
